Data as given in paper doi:10.1101/2020.10.04.325654 (bioRxiv, 2020).

B1: 6xHis-OCRL (enzyme)
chain: not shown
B2: His-tagged ASH/RhoGAP domain of OCRL (536aa-901aa) (domain or fragment)
chain: not shown

Tests used:
GST-SdhA-CBM2 [1] = molecular target: T1, GST-SdhA-CBM2 (Legionella pneumophila, UniProt Q6RCQ3 1029-1260); assay: pull-down
GST-SdhA-CBM2 [2] = molecular target: T1, GST-SdhA-CBM2; assay: ELISA

| Binder | binding result (GST-SdhA-CBM2 [1]) | binding result (GST-SdhA-CBM2 [2]) |
| --- | --- | --- |
| B1 | binds | – |
| B2 | – | binds |
